For assay [1], the target named is T1, human CD11a (human, UniProt P20701 26-1170).
T1 construct: whole, on cells; On Jurkat T-cells or human peripheral blood mononuclear cells, as part of LFA-1; also called CD11a on Jurkat cells; alpha subunit of LFA-1
Description: FACScan, Jurkat cells. The method, then: (§1) Aliquots of 10⁶ Jurkat T-cells were incubated with serial dilutions of humanized and control antibodies in PBS-0.1% BSA-10 mM sodium azide for 45 min at 4° C. The cells were washed and then incubated in fluorescein-conjugated goat anti-human F(ab′)₂ (Organon Teknika, Westchester, Pa.) for 45 min at 4° C. Cells were washed and analysed on a FACScan (Becton Dickinson, Mountain View, Calif.). 8×10³ cells were acquired by list mode and gated by forward light scatter versus side light scatter, thereby excluding dead cells and debris.

For assay [2], the target named is T2, rhesus CD11a (rhesus, UniProt H9Z8N3 26-1169).
T2 construct: whole, on cells; On rhesus peripheral blood lymphocytes or leukocytes; also called rhCD11a
T2 sequence: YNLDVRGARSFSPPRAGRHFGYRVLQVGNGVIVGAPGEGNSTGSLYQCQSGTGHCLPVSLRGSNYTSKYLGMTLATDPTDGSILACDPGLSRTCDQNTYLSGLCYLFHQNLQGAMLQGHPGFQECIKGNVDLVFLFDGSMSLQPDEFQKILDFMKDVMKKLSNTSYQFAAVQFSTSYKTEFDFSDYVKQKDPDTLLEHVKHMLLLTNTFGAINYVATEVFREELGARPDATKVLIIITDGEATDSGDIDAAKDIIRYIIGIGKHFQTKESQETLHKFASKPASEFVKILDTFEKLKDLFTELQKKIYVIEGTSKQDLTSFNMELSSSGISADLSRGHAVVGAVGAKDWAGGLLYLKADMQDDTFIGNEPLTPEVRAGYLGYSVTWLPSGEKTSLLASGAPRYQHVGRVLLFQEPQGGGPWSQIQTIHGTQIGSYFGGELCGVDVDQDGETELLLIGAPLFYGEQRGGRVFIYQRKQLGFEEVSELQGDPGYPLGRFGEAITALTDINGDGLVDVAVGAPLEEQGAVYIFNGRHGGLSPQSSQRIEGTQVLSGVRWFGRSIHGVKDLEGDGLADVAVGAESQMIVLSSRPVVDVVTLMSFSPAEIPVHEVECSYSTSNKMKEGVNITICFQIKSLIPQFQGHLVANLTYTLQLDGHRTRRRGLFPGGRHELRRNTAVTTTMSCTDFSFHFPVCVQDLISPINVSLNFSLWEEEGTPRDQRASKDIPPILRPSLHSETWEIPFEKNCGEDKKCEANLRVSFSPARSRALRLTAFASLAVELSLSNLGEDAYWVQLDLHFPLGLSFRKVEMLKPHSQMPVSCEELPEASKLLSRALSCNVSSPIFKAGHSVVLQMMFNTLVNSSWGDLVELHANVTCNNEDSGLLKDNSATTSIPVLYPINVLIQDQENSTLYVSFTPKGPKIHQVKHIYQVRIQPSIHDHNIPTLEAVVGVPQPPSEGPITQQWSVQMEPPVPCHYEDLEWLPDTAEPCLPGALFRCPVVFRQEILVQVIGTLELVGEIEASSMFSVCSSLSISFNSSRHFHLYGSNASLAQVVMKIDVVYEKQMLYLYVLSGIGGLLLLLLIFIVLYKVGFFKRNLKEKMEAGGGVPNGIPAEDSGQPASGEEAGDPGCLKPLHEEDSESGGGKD
Description: rhesus PBL binding.

Assay [3] has as its target T1, human CD11a. In words: FACScan, Jurkat cells. The method, then: as §1
To determine which CDR residues were involved in binding to human CD11a an alanine-scan (Cunningham et al., Science 244:1081 (1989)) was performed on the CDR residues of HuIgG1. Each mutant was tested for binding to CD11a on Jurkat cells. In the light chain only CDR-L3 contributes to binding.
The source holds these as a separate data set.
Target sequence in this assay (P20701 26-1170): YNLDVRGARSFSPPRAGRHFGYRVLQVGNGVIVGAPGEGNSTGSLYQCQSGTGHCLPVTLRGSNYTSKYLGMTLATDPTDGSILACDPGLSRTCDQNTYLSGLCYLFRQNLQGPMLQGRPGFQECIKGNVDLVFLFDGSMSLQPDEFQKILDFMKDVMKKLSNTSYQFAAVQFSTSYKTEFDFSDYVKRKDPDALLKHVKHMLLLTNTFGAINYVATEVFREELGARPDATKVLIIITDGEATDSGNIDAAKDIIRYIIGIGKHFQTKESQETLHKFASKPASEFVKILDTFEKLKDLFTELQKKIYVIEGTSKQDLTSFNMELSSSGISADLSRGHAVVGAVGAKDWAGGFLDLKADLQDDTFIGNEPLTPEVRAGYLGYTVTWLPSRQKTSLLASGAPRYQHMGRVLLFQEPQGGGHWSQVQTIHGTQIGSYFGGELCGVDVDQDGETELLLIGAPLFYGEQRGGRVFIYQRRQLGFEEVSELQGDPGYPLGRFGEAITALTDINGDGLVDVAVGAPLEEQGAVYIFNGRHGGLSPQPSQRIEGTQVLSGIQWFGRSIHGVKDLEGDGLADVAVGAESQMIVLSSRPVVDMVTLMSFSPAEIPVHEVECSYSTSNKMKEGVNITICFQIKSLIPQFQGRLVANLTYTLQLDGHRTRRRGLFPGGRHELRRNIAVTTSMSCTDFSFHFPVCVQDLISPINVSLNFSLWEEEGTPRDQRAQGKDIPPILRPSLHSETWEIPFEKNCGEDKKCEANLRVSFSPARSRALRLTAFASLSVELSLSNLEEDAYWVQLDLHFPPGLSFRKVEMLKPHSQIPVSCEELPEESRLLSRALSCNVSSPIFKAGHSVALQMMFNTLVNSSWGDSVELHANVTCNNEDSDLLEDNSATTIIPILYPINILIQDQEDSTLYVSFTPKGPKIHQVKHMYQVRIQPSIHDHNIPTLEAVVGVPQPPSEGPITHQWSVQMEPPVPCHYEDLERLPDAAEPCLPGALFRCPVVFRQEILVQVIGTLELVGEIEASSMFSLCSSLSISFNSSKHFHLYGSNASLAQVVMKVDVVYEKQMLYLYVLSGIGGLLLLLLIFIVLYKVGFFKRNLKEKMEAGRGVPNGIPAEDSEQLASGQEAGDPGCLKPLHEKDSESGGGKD

Assay [4] deals with T2, rhesus CD11a. In words: rhesus PBL binding. The source holds these as a separate data set.

B1: HuIgG1 mutant AspH54Glu (antibody, V domains shown)
VH: EVQLVESGGGLVQPGGSLRLSCAASGYSFTGHWMNWVRQAPGKGLEWVGMIHPSESETRYNQKFKDRFTISVDKSKNTLYLQMNSLRAEDTAVYYCARGIYFYGTTYFDYWGQGTLVTVSS
VL: DIQMTQSPSSLSASVGDRVTITCRASKTISKYLAWYQQKPGKAPKLLIYSGSTLQSGVPSRFSGSGSGTDFTLTISSLQPEDFATYYCQQHNEYPLTFGQGTKVEIK
notes: HuIgG1 mutant, human IgG1; Kabat numbering; also called AspH54 change to Glu
With B1, the “Mutant EC50/HuIgG1 EC50” value with human CD11a [1] worked out at 16 ratio.

B2: humanized MHM24 F(ab)-8 (Fab, V domains shown)
VH: EVQLVESGGGLVQPGGSLRLSCAASGYSFTGHWMNWVRQAPGKGLEWVGMIHPSDSETRYNQKFKDRFTISVDKSKNTLYLQMNSLRAEDTAVYYCARGIYFYGTTYFDYWGQGTLVTVSS
VL: DIQMTQSPSSLSASVGDRVTITCRASKTISKYLAWYQQKPGKAPKLLIYSGSTLQSGVPSRFSGSGSGTDFTLTISSLQPEDFATYYCQQHNEYPLTFGQGTKVEIKR
notes: F(ab) from E. coli with human kappa CL and CH1
B2: the “EC50 F(ab)/EC50 F(ab)-2” value in the assay with human CD11a [1] was determined as 0.004 ratio.

B3: HuIgG1 mutant SerH55Gln (antibody, V domains shown)
VH: EVQLVESGGGLVQPGGSLRLSCAASGYSFTGHWMNWVRQAPGKGLEWVGMIHPSDQETRYNQKFKDRFTISVDKSKNTLYLQMNSLRAEDTAVYYCARGIYFYGTTYFDYWGQGTLVTVSS
VL: DIQMTQSPSSLSASVGDRVTITCRASKTISKYLAWYQQKPGKAPKLLIYSGSTLQSGVPSRFSGSGSGTDFTLTISSLQPEDFATYYCQQHNEYPLTFGQGTKVEIK
notes: HuIgG1 mutant, human IgG1; Kabat numbering
As to B3, the figures for the “Var.EC50/HuIgG1 EC50” value with rhesus CD11a [2] and with human CD11a [3] were 6.7 ratio and 2.9 ratio, respectively.

B4: HuIgG1 mutant SerH55Ala (antibody, V domains shown)
VH: EVQLVESGGGLVQPGGSLRLSCAASGYSFTGHWMNWVRQAPGKGLEWVGMIHPSDAETRYNQKFKDRFTISVDKSKNTLYLQMNSLRAEDTAVYYCARGIYFYGTTYFDYWGQGTLVTVSS
VL: DIQMTQSPSSLSASVGDRVTITCRASKTISKYLAWYQQKPGKAPKLLIYSGSTLQSGVPSRFSGSGSGTDFTLTISSLQPEDFATYYCQQHNEYPLTFGQGTKVEIK
notes: as for B3
As for B4, the “Var.EC50/HuIgG1 EC50” value with rhesus CD11a [2] and in the assay with human CD11a [3] was 1.3 ratio throughout.

B5: humanized MHM24 F(ab)-5 (Fab, V domains shown)
VH: EVQLVESGGGLVQPGGSLRLSCAASGFSFTGHWMNWVRQAPGKGLEWVGMIHPSDSETRYNQKFKDRFTISVDKSSSTLYLQMNSLRAEDTAVYYCARGIYFYGTTYFDYWGQGTLVTVSS
VL: DIQMTQSPSSLSASVGDRVTITCRASKTISKYLAWYQQKPGKAPKLLIYSGSSLESGVPSRFSGSGSGTDFTLTISSLQPEDFATYYCQQHNEYPLTFGQGTKVEIK
notes: F(ab) from E. coli
With B5, in the assay with human CD11a [1], the “EC50 F(ab)/EC50 F(ab)-2” value was determined as 0.043 ratio and the “fold improvement in binding over F(ab)-2” value was determined as 23 fold.

B6: HuIgG1 mutant LysH73Arg (antibody, V domains shown)
VH: EVQLVESGGGLVQPGGSLRLSCAASGYSFTGHWMNWVRQAPGKGLEWVGMIHPSDSETRYNQKFKDRFTISVDRSKNTLYLQMNSLRAEDTAVYYCARGIYFYGTTYFDYWGQGTLVTVSS
VL: DIQMTQSPSSLSASVGDRVTITCRASKTISKYLAWYQQKPGKAPKLLIYSGSTLQSGVPSRFSGSGSGTDFTLTISSLQPEDFATYYCQQHNEYPLTFGQGTKVEIK
notes: as for B3
On to B6, for which the “Var.EC50/HuIgG1 EC50” value with rhesus CD11a [2] was 5.5 ratio; in the assay with human CD11a [3], 4.6 ratio.

B7: humanized MHM24 F(ab)-7 (Fab, V domains shown)
VH: EVQLVESGGGLVQPGGSLRLSCAASGYSFTGHWMNWVRQAPGKGLEWVGMIHPSDSETRYNQKFKDRFTISVDKSSSTLYLQMNSLRAEDTAVYYCARGIYFYGTTYFDYWGQGTLVTVSS
VL: DIQMTQSPSSLSASVGDRVTITCRASKTISKYLAWYQQKPGKAPKLLIYSGSTLQSGVPSRFSGSGSGTDFTLTISSLQPEDFATYYCQQHNEYPLTFGQGTKVEIK
notes: F(ab) from E. coli
Regarding B7, in the assay with human CD11a [1], the “EC50 F(ab)/EC50 F(ab)-2” value worked out at 0.004 ratio and the “fold improvement in binding over F(ab)-6” value worked out at 3 fold.

B8: HuIgG1 mutant ThrH30Ala (antibody, V domains shown)
VH: EVQLVESGGGLVQPGGSLRLSCAASGYSFAGHWMNWVRQAPGKGLEWVGMIHPSDSETRYNQKFKDRFTISVDKSKNTLYLQMNSLRAEDTAVYYCARGIYFYGTTYFDYWGQGTLVTVSS
VL: DIQMTQSPSSLSASVGDRVTITCRASKTISKYLAWYQQKPGKAPKLLIYSGSTLQSGVPSRFSGSGSGTDFTLTISSLQPEDFATYYCQQHNEYPLTFGQGTKVEIK
notes: as for B3
On to B8, for which the “Var.EC50/HuIgG1 EC50” value with rhesus CD11a [2] worked out at 1.3 ratio; with human CD11a [3], 1.7 ratio.

B9: humanized MHM24 F(ab)-2 (Fab, V domains shown)
VH: EVQLVESGGGLVQPGGSLRLSCAASGFSFTGHWMNWVRQAPGKGLEWVGMIHPSDSETRYNQKFKDRFTISVDNSKNTLYLQMNSLRAEDTAVYYCARGIYFYGTTYFDYWGQGTLVTVSS
VL: DIQMTQSPSSLSASVGDRVTITCRASKTISKYLAWYQQKPGKAPKLLIYSGSSLESGVPSRFSGSGSGTDFTLTISSLQPEDFATYYCQQHNEYPLTFGQGTKVEIK
notes: F(ab) from E. coli
As a reminder, the EC50 is the concentration that produces a half-maximal response. Consider B9, for which, in the assay with human CD11a [1], the EC50 was 0.771 µg/mL, the “EC50 F(ab)/EC50 F(ab)-2” value stood at 1 ratio and the “fold weaker EC50 than chimeric IgG1” value amounted to 148 fold.

B10: humanized MHM24 F(ab)-6 (Fab, V domains shown)
VH: EVQLVESGGGLVQPGGSLRLSCAASGFSFTGHWMNWVRQAPGKGLEWVGMIHPSDSETRYNQKFKDRFTISVDKSSSTLYLQMNSLRAEDTAVYYCARGIYFYGTTYFDYWGQGTLVTVSS
VL: DIQMTQSPSSLSASVGDRVTITCRASKTISKYLAWYQQKPGKAPKLLIYSGSTLQSGVPSRFSGSGSGTDFTLTISSLQPEDFATYYCQQHNEYPLTFGQGTKVEIK
notes: F(ab) from E. coli
Turning to B10, in the assay with human CD11a [1], the “EC50 F(ab)/EC50 F(ab)-2” value was found to be 0.012 ratio and the “fold improvement in binding over F(ab)-5” value was 4 fold.

B11: humanized MHM24 F(ab)-3 (Fab, V domains shown)
VH: EVQLVESGGGLVQPGGSLRLSCAASGFSFTGHWMNWVRQAPGKGLEWVGMIHPSDSETRYNQKFKDRATISVDNSKNTLYLQMNSLRAEDTAVYYCARGIYFYGTTYFDYWGQGTLVTVSS
VL: DIQMTQSPSSLSASVGDRVTITCRASKTISKYLAWYQQKPGKAPKLLIYSGSSLESGVPSRFSGSGSGTDFTLTISSLQPEDFATYYCQQHNEYPLTFGQGTKVEIK
notes: F(ab) from E. coli; F(ab)-2 plus PheH67Ala
For the molecule B11, the “EC50 F(ab)/EC50 F(ab)-2” value with human CD11a [1] turned out to be 1.2 ratio.

B12: HuIgG1 mutant SerH53Ala (antibody, V domains shown)
VH: EVQLVESGGGLVQPGGSLRLSCAASGYSFTGHWMNWVRQAPGKGLEWVGMIHPADSETRYNQKFKDRFTISVDKSKNTLYLQMNSLRAEDTAVYYCARGIYFYGTTYFDYWGQGTLVTVSS
VL: DIQMTQSPSSLSASVGDRVTITCRASKTISKYLAWYQQKPGKAPKLLIYSGSTLQSGVPSRFSGSGSGTDFTLTISSLQPEDFATYYCQQHNEYPLTFGQGTKVEIK
notes: as for B3
As for B12, the entries for the “Var.EC50/HuIgG1 EC50” value with rhesus CD11a [2] and in the assay with human CD11a [3] were 0.7 ratio and 1.8 ratio, respectively.

B13: humanized MHM24 F(ab)-4 (Fab, V domains shown)
VH: EVQLVESGGGLVQPGGSLRLSCAASGFSFTGHWMNWVRQAPGKGLEWVGMIHPSDSETRYNQKFKDRFTISRDNSKNTLYLQMNSLRAEDTAVYYCARGIYFYGTTYFDYWGQGTLVTVSS
VL: DIQMTQSPSSLSASVGDRVTITCRASKTISKYLAWYQQKPGKAPKLLIYSGSSLESGVPSRFSGSGSGTDFTLTISSLQPEDFATYYCQQHNEYPLTFGQGTKVEIK
notes: F(ab) from E. coli; F(ab)-2 plus ValH71Arg
As for B13, the “EC50 F(ab)/EC50 F(ab)-2” value with human CD11a [1] came out at 2.9 ratio.

B14: HuIgG1 mutant GluH56Ala (antibody, V domains shown)
VH: EVQLVESGGGLVQPGGSLRLSCAASGYSFTGHWMNWVRQAPGKGLEWVGMIHPSDSATRYNQKFKDRFTISVDKSKNTLYLQMNSLRAEDTAVYYCARGIYFYGTTYFDYWGQGTLVTVSS
VL: DIQMTQSPSSLSASVGDRVTITCRASKTISKYLAWYQQKPGKAPKLLIYSGSTLQSGVPSRFSGSGSGTDFTLTISSLQPEDFATYYCQQHNEYPLTFGQGTKVEIK
notes: as for B3
For the molecule B14, the “fold improvement in binding over HuIgG1” value with rhesus CD11a [4] amounted to 3 fold. Also, the “Var.EC50/HuIgG1 EC50” value with rhesus CD11a [2] was 0.3 ratio; with human CD11a [3], 4 ratio.

The values are drawn from US20040146507A1 (Genentech, published 2004).
